± gives the standard deviation.
Assay: collision cross section of modified peptide (TIMS, N2, iRT-aligned); higher = larger / more extended gas-phase ion
Method in brief: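 Values are averages of 1–3 technical replicates of the most abundant feature for each charge state. Collision cross section was obtained from the Mason-Schamp equation after 1/K0 calibration with three reference ions and run-wise alignment to the median iRT peptide deviation. Synthetic peptide pools (iRT standard spiked 1:40) were separated on a 120-min nanoflow C18 gradient at 60 °C, analysed on a timsTOF Pro/HT (dda-PASEF, nitrogen, ~2.4 mbar) and identified with MaxQuant.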

[1] = charge state: 2, modification: Methyl (K)
[2] = charge state: 3, modification: Methyl (K)
[3] = charge state: 2, modification: Succinyl
[4] = charge state: 3, modification: Trimethyl (K)
[5] = charge state: 2, modification: hydroxyisobutyryl
[6] = charge state: 2, modification: Acetyl (K)
[7] = charge state: 2, modification: Biotin
[8] = charge state: 2, modification: Nitro (Y)
[9] = charge state: 2, modification: Phospho (Y)
[10] = charge state: 2, modification: Citrullination (R)
[11] = charge state: 2, modification: Methyl (R)
[12] = charge state: 3, modification: Methyl (R)

With “SDSGKPYYYNSQTK [_SDSGK(Methyl (K))PYYYNSQTK_]” the collision cross section [1] was 422.21 Å² and the collision cross section [2] was 475.71 ± 2.9 Å².
Sequence “SDSGKPYYYNSQTK [_SDSGK(Succinyl)PYYYNSQTK_]” has a collision cross section [3] of 423.37 ± 1.1 Å².
In the case of “SDSGKPYYYNSQTK [_SDSGK(Trimethyl (K))PYYYNSQTK_]”, the collision cross section [4] is reported as 473.28 ± 2.4 Å².
Work on “SDSGKPYYYNSQTK [_SDSGK(hydroxyisobutyryl)PYYYNSQTK_]” yielded a collision cross section [5] of 428.74 ± 0.3 Å² and a collision cross section (charge state: 3, modification: hydroxyisobutyryl) of 490.1 ± 3.9 Å².
For SEASSEFAKK [_SEASSEFAK(Acetyl (K))K_], the collision cross section [6] was 349.46 ± 1 Å².
In the case of SEASSEFAKK [_SEASSEFAK(Biotin)K_], the collision cross section [7] is reported as 374.33 Å².
For SEASSEFAKK [_SEASSEFAK(Butyryl)K_], the collision cross section (charge state: 2, modification: Butyryl) was 356.58 ± 1.8 Å².
Work on SEASSEFAKK [_SEASSEFAK(Crotonyl)K_] yielded a collision cross section (charge state: 2, modification: Crotonyl) of 355.23 ± 0.57 Å².
With SEASSEFAKK [_SEASSEFAK(Dimethyl (K))K_] the collision cross section (charge state: 2, modification: Dimethyl (K)) was 358.79 ± 0.58 Å² and the collision cross section (charge state: 3, modification: Dimethyl (K)) was 422.66 ± 2.8 Å².
SEASSEFAKK [_SEASSEFAK(Formyl)K_] showed a collision cross section (charge state: 2, modification: Formyl) of 345.37 ± 1.6 Å².
In the case of “SEASSEFAKK [_SEASSEFAK(Gluratylation)K_]”, the collision cross section (charge state: 2, modification: Glutarylation) is reported as 358.01 ± 0.65 Å².
For SEASSEFAKK [_SEASSEFAK(GlyGly (K))K_], the collision cross section (charge state: 2, modification: GlyGly (K)) was 362.55 ± 0.39 Å² and the collision cross section (charge state: 3, modification: GlyGly (K)) was 429.79 ± 1.1 Å².
In the case of SEASSEFAKK [_SEASSEFAK(Malonyl)K_], the collision cross section (charge state: 2, modification: Malonyl) is reported as 350.91 ± 0.74 Å².
With SEASSEFAKK [_SEASSEFAK(Methyl (K))K_] the collision cross section [1] was 357.88 ± 2.5 Å² and the collision cross section [2] was 426.48 ± 2.6 Å².
In the case of SEASSEFAKK [_SEASSEFAK(Propionyl)K_], the collision cross section (charge state: 2, modification: Propionyl) is reported as 351.7 ± 3.7 Å².
With SEASSEFAKK [_SEASSEFAK(Succinyl)K_] the collision cross section [3] was 351.69 ± 0.87 Å².
Sequence “SEASSEFAKK [_SEASSEFAK(Trimethyl (K))K_]” has a collision cross section (charge state: 2, modification: Trimethyl (K)) of 361.14 ± 0.6 Å² and a collision cross section [4] of 431.4 ± 4.5 Å².
Sequence “SEASSEFAKK [_SEASSEFAK(hydroxyisobutyryl)K_]” has a collision cross section [5] of 356.42 ± 0.78 Å².
For SEGFDTYR [_SEGFDTY(Nitro (Y))R_], the collision cross section [8] was 336.07 ± 0.95 Å².
In the case of SEGFDTYR [_SEGFDTY(Phospho (Y))R_], the collision cross section [9] is reported as 338.3 ± 0.78 Å².
For “SFDEVEGVFGRGGGR [_SFDEVEGVFGR(Citrullination (R))GGGR_]”, the collision cross section [10] was 404.76 ± 0.98 Å² and the collision cross section (charge state: 3, modification: Citrullination (R)) was 503.12 Å².
Work on “SFDEVEGVFGRGGGR [_SFDEVEGVFGR(Methyl (R))GGGR_]” yielded a collision cross section [11] of 429.58 ± 1.6 Å² and a collision cross section [12] of 513.29 ± 1.2 Å².
With SFEDIHQYR [_SFEDIHQY(Nitro (Y))R_] the collision cross section [8] was 368.15 ± 0.17 Å² and the collision cross section (charge state: 3, modification: Nitro (Y)) was 453.82 ± 1.2 Å².
For SFEDIHQYR [_SFEDIHQY(Phospho (Y))R_], the collision cross section [9] was 367.21 ± 0.78 Å².
In the case of “SFSASGAQIVSR [_SFSASGAQIVS(HexNAc (ST))R_]”, the collision cross section (charge state: 2, modification: HexNAc (ST)) is reported as 387.57 ± 0.63 Å².
“SGATAGAAGGRGK [_SGATAGAAGGR(Citrullination (R))GK_]” gave a collision cross section [10] of 331.61 ± 0.28 Å².
In the case of “SGATAGAAGGRGK [_SGATAGAAGGR(Methyl (R))GK_]”, the collision cross section [11] is reported as 366.66 ± 1.5 Å² and the collision cross section [12] is reported as 448.31 ± 3.9 Å².
With SGFGKFER [_SGFGK(Acetyl (K))FER_] the collision cross section [6] was 331.68 ± 1.9 Å².
SGFGKFER [_SGFGK(Biotin)FER_] gave a collision cross section [7] of 352.97 Å².

— the supplement of paper PMC10598134
